Experimental data from patent US20050238649A1.

Target: human HER2 (ErbB2) receptor (human) (UniProt P04626)
Assay: cell-based or functional assay

## 4D5 Fab-MC-vc-PAB-MMAF, 1.5 MMAF/Ab
  IC50, cell proliferation assay (CellTiter-Glo), BT474 cells: 0.04 µg ADC/ml
  IC50, cell proliferation assay (CellTiter-Glo), SK-BR-3 cells: 0.02 µg ADC/ml

## murine monoclonal antibody 4D5
  maximum inhibition of cell proliferation of SK-BR-3 cells: 66%
